The results in this text go back to article PMC11514458.

The target in data set [1] is T1, BCDX2 complex (human, UniProt O15315;O43502;O75771;O43543 1-384;1-376;1-328;1-280).
T1 sequence 1: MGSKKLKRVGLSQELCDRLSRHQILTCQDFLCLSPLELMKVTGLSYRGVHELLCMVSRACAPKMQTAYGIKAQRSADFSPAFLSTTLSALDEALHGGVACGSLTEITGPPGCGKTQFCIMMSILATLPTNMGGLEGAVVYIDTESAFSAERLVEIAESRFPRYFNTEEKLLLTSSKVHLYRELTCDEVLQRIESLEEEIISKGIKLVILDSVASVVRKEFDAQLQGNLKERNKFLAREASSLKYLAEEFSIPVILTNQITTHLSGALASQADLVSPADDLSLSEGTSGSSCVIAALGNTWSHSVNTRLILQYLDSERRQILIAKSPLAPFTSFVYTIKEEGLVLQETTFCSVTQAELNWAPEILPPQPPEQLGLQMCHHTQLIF
T1 sequence 2: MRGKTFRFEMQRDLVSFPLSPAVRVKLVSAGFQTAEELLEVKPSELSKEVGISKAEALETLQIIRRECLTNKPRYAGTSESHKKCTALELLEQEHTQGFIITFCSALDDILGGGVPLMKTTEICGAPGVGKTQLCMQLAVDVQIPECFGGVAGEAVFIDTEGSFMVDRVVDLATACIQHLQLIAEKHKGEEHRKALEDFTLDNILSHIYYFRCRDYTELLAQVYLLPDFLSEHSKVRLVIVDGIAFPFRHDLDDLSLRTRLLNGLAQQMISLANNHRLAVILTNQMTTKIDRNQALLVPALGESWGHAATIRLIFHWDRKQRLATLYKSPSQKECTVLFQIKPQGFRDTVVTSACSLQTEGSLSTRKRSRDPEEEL
T1 sequence 3: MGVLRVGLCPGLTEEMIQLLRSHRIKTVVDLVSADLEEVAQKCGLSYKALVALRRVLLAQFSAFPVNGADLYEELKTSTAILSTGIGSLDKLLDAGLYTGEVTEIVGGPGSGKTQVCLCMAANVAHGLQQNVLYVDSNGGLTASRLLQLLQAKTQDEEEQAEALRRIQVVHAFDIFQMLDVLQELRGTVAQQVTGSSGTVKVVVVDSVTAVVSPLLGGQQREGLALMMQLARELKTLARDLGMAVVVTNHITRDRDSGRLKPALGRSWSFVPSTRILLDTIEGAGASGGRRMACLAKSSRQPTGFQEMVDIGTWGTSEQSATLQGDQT
T1 sequence 4: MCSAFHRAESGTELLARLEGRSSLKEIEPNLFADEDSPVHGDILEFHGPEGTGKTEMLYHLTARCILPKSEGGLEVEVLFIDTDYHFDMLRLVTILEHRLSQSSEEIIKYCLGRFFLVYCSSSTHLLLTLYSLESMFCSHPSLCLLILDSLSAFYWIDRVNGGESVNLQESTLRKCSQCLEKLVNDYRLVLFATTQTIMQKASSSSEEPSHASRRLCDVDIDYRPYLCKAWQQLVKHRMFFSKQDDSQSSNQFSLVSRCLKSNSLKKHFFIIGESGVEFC
The experiment in a line: EMSA; stronger than miniBRCA2; EMSA: 20 mM Tris-HCl pH 7.5, 2 mM MgCl2, 2 mM ATP, 37 C, 20 nM DNA, glutaraldehyde fixation; stopped-flow: 25 mM Tris-HCl pH 7.5, 5 mM MgCl2, 50 mM KCl, 2 mM ATP, 0.5 mM EDTA, 10% glycerol, 37 C; BLI: 50 mM Tris-HCl pH 7.5, 2 mM ATP, 50 mM KCl, 5 mM MgCl2, 0.05% Tween 20, room temperature. The settings on record: protein: recombinant; tags: Strep-tag and His-tag (XRCC2 N-terminal His); copies: 1;1;1;1; label: 5' FITC. (In EMSA bound probe runs differently from free probe, usually more slowly.)

The target of data set [2] is T2, DX2 complex (human, UniProt O75771;O43543 1-328;1-280).
T2 sequence 1: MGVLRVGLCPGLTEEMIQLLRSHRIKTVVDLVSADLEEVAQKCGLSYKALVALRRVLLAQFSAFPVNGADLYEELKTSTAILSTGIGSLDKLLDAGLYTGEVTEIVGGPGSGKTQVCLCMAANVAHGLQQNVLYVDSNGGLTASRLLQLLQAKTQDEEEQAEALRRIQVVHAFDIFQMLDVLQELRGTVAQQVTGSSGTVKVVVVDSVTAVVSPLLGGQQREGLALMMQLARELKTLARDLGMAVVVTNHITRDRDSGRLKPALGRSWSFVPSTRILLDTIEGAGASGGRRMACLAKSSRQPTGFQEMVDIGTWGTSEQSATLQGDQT
T2 sequence 2: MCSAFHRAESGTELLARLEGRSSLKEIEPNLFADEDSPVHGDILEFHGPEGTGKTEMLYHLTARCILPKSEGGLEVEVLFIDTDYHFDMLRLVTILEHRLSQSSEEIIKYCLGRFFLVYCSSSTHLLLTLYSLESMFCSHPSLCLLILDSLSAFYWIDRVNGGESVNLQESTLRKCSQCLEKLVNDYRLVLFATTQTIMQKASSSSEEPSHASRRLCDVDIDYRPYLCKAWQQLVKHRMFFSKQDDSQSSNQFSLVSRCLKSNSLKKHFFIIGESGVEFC
The experiment in a line: EMSA; strong binding; EMSA: 20 mM Tris-HCl pH 7.5, 2 mM MgCl2, 2 mM ATP, 37 C, 20 nM DNA, glutaraldehyde fixation; stopped-flow: 25 mM Tris-HCl pH 7.5, 5 mM MgCl2, 50 mM KCl, 2 mM ATP, 0.5 mM EDTA, 10% glycerol, 37 C; BLI: 50 mM Tris-HCl pH 7.5, 2 mM ATP, 50 mM KCl, 5 mM MgCl2, 0.05% Tween 20, room temperature. The note with it: protein: recombinant; tags: His-tag; copies: 1;1; label: internal FITC; reversed fork of 4 strands with ssDNA overhang.

The target in data set [3] is T1, BCDX2 complex. The description is as above. The settings on record: protein: recombinant; tags: Strep-tag and His-tag (XRCC2 N-terminal His); copies: 1;1;1;1; label: internal FITC; reversed fork of 4 strands with ssDNA overhang.
For data set [4], the target named is T3, D(R266A)X2 (UniProt O75771;O43543 1-328;1-280, R266A).
T3 sequence 1: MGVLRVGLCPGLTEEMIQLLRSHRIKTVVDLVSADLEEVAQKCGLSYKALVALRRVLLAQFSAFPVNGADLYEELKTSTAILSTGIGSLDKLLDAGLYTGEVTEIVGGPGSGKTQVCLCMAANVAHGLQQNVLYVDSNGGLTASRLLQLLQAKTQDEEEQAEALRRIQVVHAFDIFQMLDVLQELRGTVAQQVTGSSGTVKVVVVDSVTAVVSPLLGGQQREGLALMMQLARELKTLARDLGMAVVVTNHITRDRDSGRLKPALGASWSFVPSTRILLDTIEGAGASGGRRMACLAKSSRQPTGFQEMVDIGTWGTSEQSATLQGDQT
T3 sequence 2: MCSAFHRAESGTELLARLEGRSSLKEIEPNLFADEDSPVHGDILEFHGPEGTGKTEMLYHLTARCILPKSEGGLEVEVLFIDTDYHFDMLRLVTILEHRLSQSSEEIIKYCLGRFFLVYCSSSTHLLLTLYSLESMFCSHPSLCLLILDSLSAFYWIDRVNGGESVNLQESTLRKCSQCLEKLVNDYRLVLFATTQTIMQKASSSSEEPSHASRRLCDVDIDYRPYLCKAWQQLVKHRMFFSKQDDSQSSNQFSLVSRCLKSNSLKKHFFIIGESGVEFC
Briefly: EMSA; not significantly affected; EMSA: 20 mM Tris-HCl pH 7.5, 2 mM MgCl2, 2 mM ATP, 37 C, 20 nM DNA, glutaraldehyde fixation; stopped-flow: 25 mM Tris-HCl pH 7.5, 5 mM MgCl2, 50 mM KCl, 2 mM ATP, 0.5 mM EDTA, 10% glycerol, 37 C; BLI: 50 mM Tris-HCl pH 7.5, 2 mM ATP, 50 mM KCl, 5 mM MgCl2, 0.05% Tween 20, room temperature. The note with it: protein: recombinant; copies: 1;1; label: internal FITC; reversed fork of 4 strands with ssDNA overhang.

Data set [5] deals with T4, DX2(R159A) (UniProt O75771;O43543 1-328;1-280, R159A).
T4 sequence 1: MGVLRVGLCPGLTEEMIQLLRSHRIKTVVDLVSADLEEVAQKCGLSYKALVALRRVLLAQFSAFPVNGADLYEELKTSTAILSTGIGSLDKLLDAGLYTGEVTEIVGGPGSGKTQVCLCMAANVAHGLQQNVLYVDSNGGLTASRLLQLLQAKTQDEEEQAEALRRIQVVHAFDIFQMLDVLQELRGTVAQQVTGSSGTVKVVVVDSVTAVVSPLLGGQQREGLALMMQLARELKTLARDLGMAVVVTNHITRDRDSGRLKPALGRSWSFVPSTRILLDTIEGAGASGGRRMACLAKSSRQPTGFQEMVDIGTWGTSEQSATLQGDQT
T4 sequence 2: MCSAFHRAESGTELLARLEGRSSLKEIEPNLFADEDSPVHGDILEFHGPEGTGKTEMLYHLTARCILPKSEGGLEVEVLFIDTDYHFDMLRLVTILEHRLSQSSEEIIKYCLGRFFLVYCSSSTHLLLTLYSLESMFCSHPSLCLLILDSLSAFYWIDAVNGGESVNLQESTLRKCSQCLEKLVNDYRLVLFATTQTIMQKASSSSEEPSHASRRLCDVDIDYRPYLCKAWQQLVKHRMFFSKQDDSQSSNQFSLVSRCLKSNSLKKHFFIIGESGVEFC
Described as above. The note with it: protein: recombinant; copies: 1;1; label: internal FITC; reversed fork of 4 strands with ssDNA overhang.

For the molecule GTACAAAGCTCTGGCATGATACTATGCGGC (ssDNA) [ssDNA 30mer], the binding result in data set [1] is reported as “binds”.

B1: RVF1 (mixed)
DNA 1: TGCCGAATTCTACCAGTGCCAGTGATGGACATCTTTGCCCACGTTGACCC
DNA 2: TGGGTCAACGTGGGCAAAGATGTCCTAGCAATGTAATCGTCTATGACGTT
DNA 3: TCGGATCCTCTAGACAGCTCCATGATCACTGGCACTGGTAGAATTCGGC
DNA 4: CAACGTCATAGACGATTACATTGCT
modifications: internal FITC at Z after nt 20 of strand 3
As to B1, the binding result in data set [2], in data set [3], in data set [4] and in data set [5] was “binds” each time.

As to CTAAGTTCGTCAGGATTCCAGCATTCTAACAGTCATAGCG (ssDNA) [ssDNA 40mer], the binding result in data set [1] was “binds”.
